These results are taken from article doi:10.1101/2024.11.22.622898.

The assay has as its target Retromer (recombinant trimer) (human) (UniProt Q96QK1). Nature of the assay: ITC.

pKd: −log10 of the molar value.

One may read the pKd as −log10 of the Kd, conventionally taken in molar units. As for “recombinant full-length human TBC1D13 (from UniProt Q9NVG8 1-400) (natural protein)”, the negative logarithm of the Kd (pKd) was 5.20.
As for DENND4C peptide 1189-1206, the pKd was 4.81.
